According to patent CN114573704A (dated 2022):

Assays:
[1] = target: T1, 筛选及检测用人PD-1-Fc抗原 (human PD-1-Fc, 百英生物 B3789) (human); experiment: competition ELISA, PD-1-Fc coated, biotinylated PD-L1 as competitor, antibody titrated
T1 construct: also called 带Fc标签的PD-1融合蛋白

[2] = target: T2, 筛选及检测用人PD-1抗原 (human PD-1 extracellular domain with His tag, Sino Biological Cat.10377-H08H) (human, UniProt Q15116 25-167); experiment: SPR Biacore T200, antibody captured on protein A CM5 chip, PD-1-His as analyte
T2 construct: Bought product; the entry holds the extracellular domain and the His tag; also called PD-1蛋白

IC50 [1]: 2.79 nM | Kd [2]: 7.75 nM | koff [2]: 0.000479 s⁻¹ | kon [2]: 61800 M⁻¹ s⁻¹
B1: WO2017054646中的IgG4型PD-1Ab646 (antibody, V domains shown)
VH: EVQLVESGGGLVQPGGSLRLSCAASGFTFSSYMMSWVRQAPGKGLEWVATISGGGANTYYPDSVKGRFTISRDNAKNSLYLQMNSLRAEDTAVYYCARQLYYFDYWGQGTTVTVSS
VL: DIQMTQSPSSLSASVGDRVTITCLASQTIGTWLTWYQQKPGKAPKLLIYTATSLADGVPSRFSGSGSGTDFTLTISSLQPEDFATYYCQQVYSIPWTFGGGTKVEIKR
notes: IgG4 positive control
